According to the supplement of paper PMC9170038:

Test system: MS2 coat protein
Experiment: apparent KD of MS2 coat protein; designed switch direction (-1 OFF switch, 1 ON switch): -1; higher = weaker reporter binding
Summary of the method: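 RNA switches sharing common flanks were transcribed by stalled E. coli RNA polymerase on Illumina chips. A doubling series of SNAP-549-labelled MS2 coat protein, from 0.7 or 1.5 nM to 3 µM, was applied in Tris-HCl pH 7.5 buffer with KCl, MgCl2, BSA, DTT, tRNA and Tween-20. Each step lasted 0.8–1.5 h at the bottom of the series and 10–20 min at the top. Normalised cluster fluorescence was curve-fitted, giving apparent KD as the per-design median over clusters.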

[1] = Eterna round: R95, input ligand: microRNA oligo, concentration not stated
[2] = input ligand: microRNA oligo, concentration not stated
[3] = Eterna round: R95, input ligand: FMN 200 uM
[4] = Eterna round: R95, input ligand: none

Sequence | apparent KD of MS2 coat protein [1] [nM] | apparent KD of MS2 coat protein (input ligand: FMN 200 uM) [nM] | apparent KD of MS2 coat protein (input ligand: none) [nM] | apparent KD of MS2 coat protein [2] [nM] | further results
AUCAUGUAAGGAUAUCUUACAUGUGACUUCGGUCACUGUUCAGAGAAGGUACAUGAGGAUCACCCAUGUAGAAC [Ex4-3: 45] (puzzle: Exclusion 4) | 18.5 |  |  |  | 
AUCCUACAUGAGGAUCACCCAUGUCAGGAUAUCCAAGAAAUCUGGCCGUAUCGGCCAGGGAGAAGGGACAUGGC [jl-ex1-4.66 ViennaUCT mod] (Eterna round: R97, puzzle: Exclusion 1) |  | 85.6 | 28.4 |  | 
AUCCUGCGAGGAUAUACAUAAUUUUUUUCGUUUUGACUCGAACAUGAGGAUCACCCAUGUAGAAGGUGCUUCAC [JR_Ex2_Sub027] (Eterna round: R97, puzzle: Exclusion 2) |  | 122 | 94.8 |  | 
AUCGUGCAGCUUUGCUGUACGAGUACAUGAGGAUCACCCAUGUAGGAUAUGGUACGCAAAGCGUGCUAGAAGGAUAUGAGAUUA [Mat - Exclusion NG 3 - Mod of JL - D96] (Eterna round: R96, puzzle: Exclusion NG 3) |  | 24.2 | 28.8 | 21.5 | 
AUCGUGUCAGGAUAUUGAAGUUCCGGGCAGUCCACGGAGCUCGAGAAGGGACAUGAGGAUCACCCAUGUCUCAU [Eternabot (L1) Solution 84] (Eterna round: R97, puzzle: Exclusion 4) |  | 21.4 | 18.6 |  | 
AUCUUGUCAGGAUAUCUGACAAGUGACGAAAGUCACAGUUCAGAGAAGGUACAUGAGGAUCACCCAUGUAGAAC [Ex4-3: 40] (puzzle: Exclusion 4) | 19.1 |  |  |  | 
AUGAGCAGACGGAGAUCCAACAUGAGGAUCACCCAUGUCUCAUAAGCUUUUUGUUCAUCUUAUUGUACCUUGGUGCU [Mat - Sensor v3 - turn-off var 1 - JL Mod - D22] (puzzle: Sensor v3, turn-off variant 1) | 12.6 |  |  |  | apparent KD of MS2 coat protein [3]: 53.7 nM; apparent KD of MS2 coat protein [4]: 67.7 nM
AUGCGACAUGAGGAUCACCCAUGUGAGGAUAUUCGAAUGCACAAUUCGGUGUGAUAGAGGAGAAGGCGCAGGUA [EX1 #19] (Eterna round: R97, puzzle: Exclusion 1) |  | 154 | 243 |  | 
AUGGGUCCUCUCGGAGCGACAUGAGGAUCACCCAUGUGUGUUGAGGAUAUCCACUGCUAAGGACGGGAGAAGGCAGUGUACUGU [Ex NG3 #85] (Eterna round: R96, puzzle: Exclusion NG 3) |  | 29.8 | 32.9 | 23.5 | 
AUGGUACAUGAGGAUCACCCAUGUUAGGAUAUCGCGUGAGGUAAAACUUACACACACACGAGAAGGGACGACAU (puzzle: Exclusion 1) | 55.1 |  |  |  | 
AUGUAACAUGAGGAUCACCCAUGUGAGGAUAUGCGAAUGAAUGAAUGAAUGAAUGUUAGCAGAAGGCACAAGUA [Default title] (Eterna round: R97, puzzle: Exclusion 1) |  | 59.6 | 44.3 |  | 
AUGUAGUAAGGAUAUAGAAAGAAGGAGUAAGAUAGAGAGUUCUAGAAGGUACAUGAGGAUCACCCAUGUUGGAG [JR_Exclu4_Sub081] (puzzle: Exclusion 4) | 22.2 |  |  |  | 
AUGUGGGUACGAAGGUGUAGAUUGAGCGUACGUUCUGGAACAUGAGGAUCACCCAUGUCGCUUUUUGCUCGUCUUAU [JR_SV3TOV2_Sub035] (puzzle: Sensor v3, turn-off variant 2) | 47.8 |  |  |  | apparent KD of MS2 coat protein [3]: 25.1 nM; apparent KD of MS2 coat protein [4]: 24.1 nM
AUGUUACAUGAGGAUCACCCAUGUGAGGAUAUGAGUCAGUCACGGUGACGUGGCUGACUCAGAAGGCACAAAGG [JL-ex1-4.38 salish99 mod] (Eterna round: R97, puzzle: Exclusion 1) |  | 754 | 180 |  | 
AUGUUACUCUGAGGAUAUUGUUUAUUCUUCUCACAUGAGGAUCACCCAUGUUUCCAUGUUAACCGCAAGAAGGCAGUAUUGAUU [JR_ExcNG2_Sub030] (Eterna round: R96, puzzle: Exclusion NG 2) |  | 76.1 | 55.1 | 49.1 | 
AUUAAACAUGUAGGAUAUGCGUGGCGAAGCUAUGCAGAAGGACAUGAGGAUCACCCAUGUAAGAGCGUCUGCGUACAGAUGCAA [Mat - Exclusion NG 1 - Mod of JL - D85] (Eterna round: R96, puzzle: Exclusion NG 1) |  | 563 | 61.5 | 36.6 | 
AUUAAAGACCGAGGAUAUCGAGGAAAUACCCUGCGAGAAGGCGGGUACUCGGACGAUUCGACAUGAGGAUCACCCAUGUGCACA [Atrivece] (Eterna round: R96, puzzle: Exclusion NG 1) |  | 26.6 | 25.9 | 24.5 | 
AUUAGCGUAGGAUAUUGAUACAUGUACAUGAGGAUCACCCAUGUGAGGUGAGUCUUCGAUUAAGAAGGGCGCAGAA [EX5 #39] (Eterna round: R97, puzzle: Exclusion 5) |  | 82.6 | 1210 |  | 

Sequence | apparent KD of MS2 coat protein [1] [nM] | apparent KD of MS2 coat protein (input ligand: FMN 200 uM) [nM] | apparent KD of MS2 coat protein (input ligand: none) [nM] | apparent KD of MS2 coat protein [2] [nM] | further results
AUUAUAAAGUCAGGAUAUCGGUUUAUAAUAUUACGAGAAGGGACAUGAGGAUCACCCAUGUAUUAACACUACUAUGUCAACUAA [1st Attempt] (Eterna round: R96, puzzle: Exclusion NG 1) |  |  |  | 33.3 | 
AUUAUAAAUGUAGGAUAUCUGCACGUUUAGUGCAGAGAAGGACAUGAGGAUCACCCAUGUAGAUCAAUAAUAAUUAAUUUAAUU [ENG1/5-B2] (Eterna round: R96, puzzle: Exclusion NG 1) |  | 146 | 33.7 | 29.1 | 
AUUAUAACAUAGGAUAUCGAAUUUAUCAUUUAACGAGAAGGAUGAACAUGAGGAUCACCCAUGUGGUAUCAUGG [Mat - Exclusion 6 - JL Mod - D3] (puzzle: Exclusion 6) | 173 |  |  |  | apparent KD of MS2 coat protein [3]: 55 nM; apparent KD of MS2 coat protein [4]: 33.5 nM
AUUAUAUAGAUAGGAUAUUGAUUAUUAUUUUAACAUGAGGAUCACCCAUGUAGCCUUAUGUAUAACAAGAAGGAUCAUUUAUUA [Title] (Eterna round: R96, puzzle: Exclusion NG 2) |  |  |  | 137 | 
AUUAUAUAGGAAGGAUAUAGAAUAUUAUUUUAACAUGAGGAUCACCCAUGUAACCUUAUGUGUAGCUAGAAGGUCCAUUUGUUA [Title] (Eterna round: R96, puzzle: Exclusion NG 2) |  |  |  | 221 | 
AUUAUUUAAGUCAGGAUAUCGUAUUUAUUUAAAUACGAGAAGGGACAUGAGGAUCACCCAUGUAAUAAAUUUUU [JMFs Solution 3] (puzzle: Brourd's mod of Exclusion 4) | 17.2 |  |  |  | 
AUUCAACAUGAGGAUCACCCAUGUGAGGAUAUGCGAGUGUAGACUUCGGUUUGAUAGAGCAGAAGGCGCAGGUA [EX1 #12] (Eterna round: R97, puzzle: Exclusion 1) |  | 35.9 | 33.3 |  | 
AUUCAGCGAGGAUAUACAGGUUCUGGGUGAGGCUCGGCGAGACAUGAGGAUCACCCAUGUAGAAGGUGCUAGCC [Rezalaes] (puzzle: Exclusion 2) | 277 |  |  |  | 
AUUCUUCAUAUCACAUGAGGAUCACCCAUGUUAUUCAUCGCGUAGGAUAUCGAGAAUUUUAAAUACGAGAAGGACGAAUUGAUA [JR_ExcNG3_Sub071] (Eterna round: R96, puzzle: Exclusion NG 3) |  | 35.1 | 35.3 | 31.8 | 
AUUGAGCUAGGAUAUACAUGAGGAUCACCCAUGUAGCAAAAUAGCUAUACAUGAUCGGGUAGAAGGAGCGCGAG [Tirivela] (puzzle: Exclusion 3) | 14.3 |  |  |  | 
AUUGUGUGAGGAUAUUAGUAGUAAAUAAAUAAAAUUAUUACUGAGAAGGCACAUGAGGAUCACCCAUGUUCCUU [Salish 062 v5] (Eterna round: R97, puzzle: Exclusion 4) |  | 131 | 18.9 |  | 
AUUGUUUGAUACCUCUAAUACAUGAGGAUCACCCAUGUUAUCGAGGAUAUGCAGUAGAGUGGAGAGCAGAAGGCGAAGUAAGUG [JR_ExcNG3_Sub028] (Eterna round: R96, puzzle: Exclusion NG 3) |  | 27 | 13.7 | 14.4 | 
AUUUAGAGAGGAUAUAUUAUGUGAAACAUGAGGAUCACCCAUGUAAUAUGAUGGAUGUAAAUAGAAGGCUCAUUUA [Mat - Exclusion 5 - JL mod - D23] (puzzle: Exclusion 5) | 43.5 |  |  |  | apparent KD of MS2 coat protein [3]: 32.9 nM; apparent KD of MS2 coat protein [4]: 56.4 nM
AUUUAGUCAGGAUAUUAGUAGUAAAUGAAUAAAAUUAUUACUGAGAAGGGACAUGAGGAUCACCCAUGUGUCUA [Mat - Exclusion 4 - Eli Mod - D8] (Eterna round: R97, puzzle: Exclusion 4) |  | 60 | 28.5 |  | 
AUUUGCACGCUGCGGUCCUACAUGAGGAUCACCCAUGUGGUCUGGUGGCGUGGGUCGCCGGACUUGGCUCGUCUUGG [salish99_S_TOV1_R5_034] (Eterna round: R97, puzzle: Sensor, turn-off variant 1) |  | 14.9 | 14.7 |  | 
AUUUUAAUAUAGGAUAUCGAAUUUAUUAUUUAACGAGAAGGAUAAACAUGAGGAUCACCCAUGUGGUAUCAUGG [JMFs Solution 2] (puzzle: Exclusion 6) | 113 |  |  |  | 
AUUUUGAAUGUAAGGAUAUCAAUACGAGGGCGUGAUGAGAAGGUACAUGAGGAUCACCCAUGUGGCGAGCUCAC [BmEX4 B.24] (Eterna round: R97, puzzle: Brourd's mod of Exclusion 4) |  | 33.5 | 23.7 |  | 
AUUUUGUCAGGAUAUGAGUAGUAGGACGAAAGUGUUAUUAUUUAGAAGGGACAUGAGGAUCACCCAUGUUUUCC [Bring Us a Shrubbery-04] (puzzle: Exclusion 4) | 12 |  |  |  | 
